Laboratory results: publication PMC7955032, “The amyloid structure of mouse RIPK3 (receptor interacting protein kinase 3) in cell necroptosis” (Nature Communications, 2021)
Positions count from the first letter of the chain named. Names and notes keep the numbering of the source.

B1: mouse RIPK3 409-486 Q449D (domain or fragment, UniProt Q9QZL0 409-486, looked up)
chain: GPHPQRNQGDGRHGTPWYPWTPPNPMTGPPALVFNNCSEVDIGNYNSLVAPPRTTASSSAKYDQAQFGRGRGWQPFHK
notes: RIPK3, mouse, residues 409-486, same construction as the SSNMR sample, with Q449D; Same construct as m1 with one substitution; source: E. coli Transetta (DE3), purified (Ni-NTA, reverse phase HPLC)
B2: mouse RIPK3 409-486 F442D (domain or fragment, UniProt Q9QZL0 409-486, looked up)
chain: B1 chain with F34D, D41Q
notes: RIPK3, mouse, residues 409-486, same construction as the SSNMR sample, with F442D; Same construct as m1 with one substitution; source: E. coli Transetta (DE3), purified (Ni-NTA, reverse phase HPLC)
B3: mouse RIPK3 409-486 L456D (domain or fragment, UniProt Q9QZL0 409-486, looked up)
chain: B1 chain with D41Q, L48D
notes: RIPK3, mouse, residues 409-486, same construction as the SSNMR sample, with L456D; Same construct as m1 with one substitution; source: E. coli Transetta (DE3), purified (Ni-NTA, reverse phase HPLC)

Columns and labels:
[1] = molecular target: the molecule itself; assay: solid-state NMR; MAS SSNMR of isotope-labelled fibrils, 700 MHz, 303 K, 15 kHz; structure calculated with Xplor-NIH for 5 copies of residues 441-460; intermolecular contacts from [2-13C]-glycerol labelled sample and from a 1:1 mix of 15N- and 13C-labelled protein
[2] = molecular target: the molecule itself; assay: thioflavin T fluorescence of fibril growth; 2 mM protein in 6 M GudHCl diluted to 20 µM in 10 mM PB buffer pH 7.4, 50 µM ThT, room temperature, about 4 h

Row | Protein | binding result [1] | binding result [2]
1 | B1 | binds | 
2 | B2 |  | binds
3 | B3 | binds | 
